Reference: the supplement of paper PMC9170038

Test system: MS2 coat protein
Test: apparent KD of MS2 coat protein; designed switch direction (-1 OFF switch, 1 ON switch): -1; higher = weaker reporter binding
Method in brief: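 Transcription of designed RNA switches on Illumina chips was done by stalled E. coli RNA polymerase. SNAP-549-labelled MS2 coat protein was then titrated in doubling steps from 0.7 or 1.5 nM to 3 µM, with steps of 0.8–1.5 h at the lowest and 10–20 min at the highest concentration. The per-design median over clusters of curve-fitted normalised fluorescence is reported as apparent KD.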

[1] = Eterna round: R95, input ligand: microRNA oligo, concentration not stated
[2] = input ligand: microRNA oligo, concentration not stated
[3] = Eterna round: R95, input ligand: FMN 200 uM
[4] = Eterna round: R95, input ligand: none

GGAUCUUGGGUCAGGAUAUGCUGACAGCCAUGUCAGCAGAAGGGACAUGAGGAUCACCCAUGUGCUCGGUUUUG [Magic-19] (puzzle: Brourd's mod of Exclusion 4)
apparent KD of MS2 coat protein [1]: 10.1 nM

ACAUGAGGAUCACCCAUGUUUGGUUGGUUUUCUCCGGCUGUUGAGGAUAUAGUCCGGUAUCCGCGCUAGAAGGUGAGGGUUGGC [Aenatbe mod 8] (Eterna round: R96, puzzle: Exclusion NG 3)
apparent KD of MS2 coat protein (input ligand: FMN 200 uM): 123 nM | apparent KD of MS2 coat protein [2]: 123 nM | apparent KD of MS2 coat protein (input ligand: none): 131 nM

AAAUAACUAGGAUAUCGAGGCACAGACAUGAGGAUCACCCAUGUGUGGUCUUCGUGCUUACGAGAAGGAGUACGGC [Teceri] (puzzle: Exclusion 5)
apparent KD of MS2 coat protein [3]: 55.6 nM | apparent KD of MS2 coat protein [1]: 168 nM | apparent KD of MS2 coat protein [4]: 83.3 nM

CGGUGCUGAGGAUAUACAUGAGGAUCACCCAUGUGUUCCAGCUAGGUGACUGGCAGAUGUAGAAGGCGGUACUG [JL-ex3-3.38 Brourd mod] (puzzle: Exclusion 3)
apparent KD of MS2 coat protein [3]: 72.2 nM | apparent KD of MS2 coat protein [1]: 98.6 nM | apparent KD of MS2 coat protein [4]: 102 nM

UUAAUUAGCAGACUAAUACCUCACAUGAGGAUCACCCAUGUGCAGGAUAUCAGCUCGAUUAGAGCUGAGAAGGGCACUGUCUGC [ExNG3/12-A1] (Eterna round: R96, puzzle: Exclusion NG 3)
apparent KD of MS2 coat protein (input ligand: FMN 200 uM): 14.8 nM | apparent KD of MS2 coat protein [2]: 8.01 nM | apparent KD of MS2 coat protein (input ligand: none): 11.3 nM

UGUACGAUGCGUGCUGACAUGCGUCGUGCAGCAAGCUUUACAUGAGGAUCACCCAUGUCCUCACUUGCUCGUCUUGU (puzzle: Sensor v3, turn-off variant 2)
apparent KD of MS2 coat protein [3]: 643 nM | apparent KD of MS2 coat protein [1]: 21.3 nM | apparent KD of MS2 coat protein [4]: 490 nM

GUAGAGUCAGGAUAUACAAGAUCGAAAGAUCGGCGGUCCAUACAUGAGGAUCACCCAUGUAGAAGGGACUCUAC [Eli x2 4.005] (Eterna round: R97, puzzle: Exclusion 2)
apparent KD of MS2 coat protein (input ligand: FMN 200 uM): 619 nM | apparent KD of MS2 coat protein (input ligand: none): 30.2 nM

AGCUAGAUAGGAUAUGCCCGAGAUAACAUGAGGAUCACCCAUGUGACCGAAUCUAUUCUAGCAGAAGGGUUUAGGA [Mod of ViennaUCT 17 - Jieux - Exclusion 5] (Eterna round: R97, puzzle: Exclusion 5)
apparent KD of MS2 coat protein (input ligand: FMN 200 uM): 16.5 nM | apparent KD of MS2 coat protein (input ligand: none): 14 nM

ACAUUCAGAGGAUAUGCGCAUAGAUAAGACUUUUUUUUUUAACAUGAGGAUCACCCAUGUAGAAGGCUGUAACA [Ex2 #49] (Eterna round: R97, puzzle: Exclusion 2)
apparent KD of MS2 coat protein (input ligand: FMN 200 uM): 21.4 nM | apparent KD of MS2 coat protein (input ligand: none): 21.7 nM

AGAUAGUGCGGAGGAUAUCUUAAUAGAAAGAAUAGAGAAGGCUGACAUGAGGAUCACCCAUGUGAGGUCUUGAGACUACAUGGU [Prohibition 35 - Jieux - Exclusion NG 1] (Eterna round: R96, puzzle: Exclusion NG 1)
apparent KD of MS2 coat protein (input ligand: FMN 200 uM): 66.3 nM | apparent KD of MS2 coat protein [2]: 12.9 nM | apparent KD of MS2 coat protein (input ligand: none): 18.2 nM

ACAAGCUGGCUCGUCUUAUACAUGAGGAUCACCCAUGUUCUCAAGGUCUUAUGUACUGACACGAAAGUGUUAGUAAU [AK-miRNA-r3-2] (Eterna round: R97, puzzle: Sensor, turn-off variant 1)
apparent KD of MS2 coat protein (input ligand: FMN 200 uM): 29.8 nM | apparent KD of MS2 coat protein (input ligand: none): 30.2 nM

AGAUAGUCAGGAUAUUAGUGGUGGAGGGAUAAUUUUAUUUUUGAGAAGGGACAUGAGGAUCACCCAUGUAAUAU [JR_Ex4_Sub064] (Eterna round: R97, puzzle: Exclusion 4)
apparent KD of MS2 coat protein (input ligand: FMN 200 uM): 33.3 nM | apparent KD of MS2 coat protein (input ligand: none): 43.5 nM

AAUAAAACAUAGGAUAUCGAAUUUAUCAUUUAACGAGAAGGAUGAACAUGAGGAUCACCCAUGUGGUAUCAUGG [Mat - Exclusion 6 - JL Mod - D7] (puzzle: Exclusion 6)
apparent KD of MS2 coat protein [3]: 168 nM | apparent KD of MS2 coat protein [1]: 244 nM | apparent KD of MS2 coat protein [4]: 216 nM

UUUUUCAGGCCAGAUCCUCACAUGAGGAUCACCCAUGUGCUCGUCUGUUUUCGCACUAUCACGUUUGUGAUAGUGCU [Level Boss var2-12] (puzzle: Sensor v3, turn-off variant 1)
apparent KD of MS2 coat protein [3]: 207 nM | apparent KD of MS2 coat protein [1]: 33.5 nM | apparent KD of MS2 coat protein [4]: 216 nM

CCGCAAAUGCAGGAUAUCGUAUCGGAUACGAUACGAGAAGGGCAUACAUGAGGAUCACCCAUGUGUCCUAGCGG [Fiskers Ex 6 - 43] (puzzle: Exclusion 6)
apparent KD of MS2 coat protein [1]: 16 nM

UUUUGAAAGUGAGGAUAUGACAUGAGGAUCACCCAUGUAAAGGGAGUUGAAUAUAUAGAAAGAUAUCAGAAGGCACAAAUGUUU [JR_ExcNG2_Sub001] (Eterna round: R96, puzzle: Exclusion NG 2)
apparent KD of MS2 coat protein [2]: 115 nM

AACCGGGCGGCAGGAUAUCCAGAUUAAUUGUGGUAGUCCUGACAUGAGGAUCACCCAUGUGAAAAGGAGAAGGGCCGGAAAUUA [Onona] (Eterna round: R96, puzzle: Exclusion NG 2)
apparent KD of MS2 coat protein (input ligand: FMN 200 uM): 437 nM | apparent KD of MS2 coat protein [2]: 64.1 nM | apparent KD of MS2 coat protein (input ligand: none): 122 nM

GAUGUGGGUUUCCGGAGUAACAUGAGGAUCACCCAUGUAGAAGUUGGAGGGAUAAUGCUUUUUGCUCGUUACACGUG [JR_SV3TOV1_Sub054] (puzzle: Sensor v3, turn-off variant 1)
apparent KD of MS2 coat protein [3]: 404 nM | apparent KD of MS2 coat protein [1]: 323 nM | apparent KD of MS2 coat protein [4]: 538 nM

UUUUAAUAUGAAGGAUAUACUUAACAUGAGGAUCACCCAUGUGGUGUUGUGAGUGAGUGAGUUUAGUAGAAGGUCAAUUCUUUU [JMF's solution 89] (Eterna round: R96, puzzle: Exclusion NG 2)
apparent KD of MS2 coat protein (input ligand: FMN 200 uM): 563 nM | apparent KD of MS2 coat protein [2]: 442 nM | apparent KD of MS2 coat protein (input ligand: none): 366 nM

UUUUUAUAUGAAGGAUAUACUUAACAUGAGGAUCACCCAUGUGGUGUUGUGAGUGAGUGAGUUUAGUAGAAGGUCAAUUCUUUU [JMF's solution 11] (Eterna round: R96, puzzle: Exclusion NG 2)
apparent KD of MS2 coat protein (input ligand: FMN 200 uM): 957 nM | apparent KD of MS2 coat protein [2]: 395 nM | apparent KD of MS2 coat protein (input ligand: none): 510 nM

UAUUAGCAAGCGAGGUCCCACAUGAGGAUCACCCAUGUGCUCGUCUUAUAAGGUACUGUGACGAUAGUCACGGUACC [Mat - Sensor, turn-off var - Eli Mod - D33] (Eterna round: R97, puzzle: Sensor, turn-off variant 1)
apparent KD of MS2 coat protein (input ligand: FMN 200 uM): 14.6 nM | apparent KD of MS2 coat protein (input ligand: none): 14.6 nM

UUCGGCGGAGGAUAUACAGUUUUUUGUUGAAUCGGCGGAAAACAUGAGGAUCACCCAUGUAGAAGGUUGUUGAA [-19.8, -17.1 kcal, A 28%] (Eterna round: R97, puzzle: Exclusion 2)
apparent KD of MS2 coat protein (input ligand: FMN 200 uM): 64.2 nM | apparent KD of MS2 coat protein (input ligand: none): 65.6 nM

GUCAUCGCAGGAUAUUAGAAUUUUUACAUGAGGAUCACCCAUGUUAAUUGGGUCUAAGUCUAAGAAGGGCGAUGAA [JR_EX5_Sub012] (Eterna round: R97, puzzle: Exclusion 5)
apparent KD of MS2 coat protein (input ligand: FMN 200 uM): 105 nM | apparent KD of MS2 coat protein (input ligand: none): 32.4 nM

ACAUGAGGAUCACCCAUGUCCGGCUGGUCUGUCUCGGCUGUCGAGGAUAUAGCACGGUAUCCGCGCUAGAAGGCGGGAGCCGGA [Aenatbe mod 86] (Eterna round: R96, puzzle: Exclusion NG 3)
apparent KD of MS2 coat protein (input ligand: FMN 200 uM): 120 nM | apparent KD of MS2 coat protein [2]: 47.1 nM | apparent KD of MS2 coat protein (input ligand: none): 38.8 nM

GGUUGGCGAGGAUAUACAUGAGGAUCACCCAUGUGAGAGAUACUAGUGAGGUCGAUUGGUAGAAGGCGCUGACA [Mat - Exclusion 3 - Mod of JL D78] (puzzle: Exclusion 3)
apparent KD of MS2 coat protein [1]: 114 nM

CGGCAUGUACAAGGAUAUCAGCACGUUUAGUGCUGAGAAGGUGUAACAUGAGGAUCACCCAUGUAGAUCAUUAACCGAUUAAUU [ENG1/9-A1] (Eterna round: R96, puzzle: Exclusion NG 1)
apparent KD of MS2 coat protein (input ligand: FMN 200 uM): 128 nM | apparent KD of MS2 coat protein [2]: 48.1 nM | apparent KD of MS2 coat protein (input ligand: none): 59 nM

AGUUGGCGAGGAUAUACAUGAGGAUCACCCAUGUGAAAUUAAAGUGAGGAAAUGAAAAGUAGAAGGCGCUGACA [Mat - Exclusion 3 - Mod of Salish D56] (puzzle: Exclusion 3)
apparent KD of MS2 coat protein [3]: 277 nM | apparent KD of MS2 coat protein [1]: 31.7 nM | apparent KD of MS2 coat protein [4]: 46.7 nM

AUUUAAUUUAAUAAGAUCACAUGAGGAUCACCCAUGUAUAUAUAGGAUAUCAGCUCGAUUAGAGCUGAGAAGGAUAUAUACUAU [ExNG3/7-B1] (Eterna round: R96, puzzle: Exclusion NG 3)
apparent KD of MS2 coat protein [2]: 422 nM

AUCAAAUUAAAUACAGAUCACAUGAGGAUCACCCAUGUCGUACGAGUGCAGAUCUUUGAAGCUGGCUCGUCUAAGUG [Eternabot (L2) Solution 21] (Eterna round: R97, puzzle: Sensor, turn-off variant 1)
apparent KD of MS2 coat protein (input ligand: FMN 200 uM): 154 nM | apparent KD of MS2 coat protein (input ligand: none): 165 nM

CUCUUGGCAGGAUAUGCAAUUUUAGACAUGAGGAUCACCCAUGUGAUCAUUCCAUAUUAUGCAGAAGGGCCUAAAC [JR_E5_Sub049] (puzzle: Exclusion 5)
apparent KD of MS2 coat protein [1]: 54.3 nM

UGAAGUAGAGGAUAUACGUGGAAAUAGAUUCAUGUAUAUCUACAUGAGGAUCACCCAUGUAGAAGGCUAUAGAU [JR_Ex2_Sub073] (Eterna round: R97, puzzle: Exclusion 2)
apparent KD of MS2 coat protein (input ligand: FMN 200 uM): 22.8 nM | apparent KD of MS2 coat protein (input ligand: none): 22.4 nM

CUUUUGUGAGGAUAUCAGUAGUUAAAUAAUAAAAUUACUACUGAGAAGGCACAUGAGGAUCACCCAUGUUCCUC [Mat - Exclusion 4 - Mod of Salish - D70] (Eterna round: R96, puzzle: Exclusion 4)
apparent KD of MS2 coat protein (input ligand: FMN 200 uM): 274 nM | apparent KD of MS2 coat protein [2]: 35.1 nM | apparent KD of MS2 coat protein (input ligand: none): 40 nM

AGUAGAUCUACGCUUGCGUGGAUCUGCAAUGCAAGUGUUACAUGAGGAUCACCCAUGUCCUCAUUUGCUCGUCUUAU [JL turnoff v2 99.04] (puzzle: Sensor v3, turn-off variant 2)
apparent KD of MS2 coat protein [3]: 42.2 nM | apparent KD of MS2 coat protein [1]: 108 nM | apparent KD of MS2 coat protein [4]: 40.9 nM
